Experimental data from PMC12582121, “RNA binding of GAPDH controls transcript stability and protein translation in acute myeloid leukemia”.

How the values were obtained:
GAPDH [1] = target: T1, GAPDH (Homo sapiens, UniProt P04406 1-335); test: fluorescence polarization; 10 mM Tris-HCl pH 8.0, 50 mM KCl, 2 mM DTT, 0.5 mM EDTA, 0.1 mg/ml BSA, 0.1 mg/ml heparin, room temperature; FP 30 min with 2 nM RNA; EMSA 20 min plus 10% glycerol and RiboLock, 6% native gel at 4°C; mass photometry without BSA/heparin; details: protein: recombinant, tags: N-terminal His, chain copies: 4, single strand
GAPDH [2] = target: T1, GAPDH; test: EMSA, possibly a misprint for nM; 10 mM Tris-HCl pH 8.0, 50 mM KCl, 2 mM DTT, 0.5 mM EDTA, 0.1 mg/ml BSA, 0.1 mg/ml heparin, room temperature; FP 30 min with 2 nM RNA; EMSA 20 min plus 10% glycerol and RiboLock, 6% native gel at 4°C; mass photometry without BSA/heparin; details: protein: recombinant; tags: N-terminal His; chain copies: 4; label: fluorescein (Roche RNA labeling mix, internal); single strand
GAPDH [3] = target: T1, GAPDH; test: EMSA; 10 mM Tris-HCl pH 8.0, 50 mM KCl, 2 mM DTT, 0.5 mM EDTA, 0.1 mg/ml BSA, 0.1 mg/ml heparin, room temperature; FP 30 min with 2 nM RNA; EMSA 20 min plus 10% glycerol and RiboLock, 6% native gel at 4°C; mass photometry without BSA/heparin; details: protein: recombinant, tags: N-terminal His, chain copies: 4, single strand

T1 sequence (P04406 whole entry): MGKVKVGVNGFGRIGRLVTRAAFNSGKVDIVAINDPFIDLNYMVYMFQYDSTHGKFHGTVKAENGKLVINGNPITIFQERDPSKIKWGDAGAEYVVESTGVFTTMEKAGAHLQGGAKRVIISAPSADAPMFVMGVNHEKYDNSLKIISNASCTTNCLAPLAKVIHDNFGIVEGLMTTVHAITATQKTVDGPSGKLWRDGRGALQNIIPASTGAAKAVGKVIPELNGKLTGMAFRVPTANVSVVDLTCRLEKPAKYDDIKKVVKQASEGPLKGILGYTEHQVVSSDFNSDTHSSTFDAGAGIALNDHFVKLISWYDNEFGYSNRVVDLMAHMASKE

UGGCCAAUGCCCUGGCUCACAAAUACCACUG (ssRNA) [Rβ31]
Kd (GAPDH [1]; S17 legend says FITC-labeled RNA): 1310 nM

B1: RPL13a 5'UTR (ssRNA)
RNA: GGGCCUCCUUUUCCAAGCGGCUGCCGAAGAUGGCGGAGGUGCAGGUCCUGGUGCUUGAUGGUCGAGGCCAUCUCCUGGGCCGCCUGGCGGCCAUCGUGGCUAAACAG
Kd (GAPDH [2]): 887000 nM

GUGAUUAUUUAUUAUUUAUUUAUUAUUUAUUUAUUUAG (ssRNA) [TNFα-ARE38]
Kd (GAPDH [3]): 217 nM | Kd (GAPDH [1]): 167 nM

B2: GAPDH 5'UTR (ssRNA)
RNA: GGGCUCUCUGCUCCUCCUGUUCGACAGUCAGCCGCAUCUUCUUUUGCGUCGCCAGCCGAGCCACAUCGCUCAGACACC
Kd (GAPDH [3]; label: fluorescein (Roche RNA labeling mix, internal)): 400 nM
